In assay [1] the target is T1, human pulmonary surfactant protein A (hSP-A) (human, UniProt Q8IWL2 21-248).
T1 construct: Native material from ground human lung tissue (supernatant of the lysate, called 'purified hSP-A'); It may hold both SP-A1 and SP-A2 gene products; also called human lung SP-A
In words: ELISA with purified nanobody.

The target of assay [2] is T1, human pulmonary surfactant protein A …. In words: indirect phage ELISA, plate coated with hSP-A, OD 450 nm. Background: In an ELISA, binding on a coated surface is turned into a signal by an enzyme label.

The results in this text go back to patent US20170058021A1 (SHANGHAI PULMONARY HOSPITAL, published 2017).

T1 sequence (Q8IWL2 21-248 limits assumed): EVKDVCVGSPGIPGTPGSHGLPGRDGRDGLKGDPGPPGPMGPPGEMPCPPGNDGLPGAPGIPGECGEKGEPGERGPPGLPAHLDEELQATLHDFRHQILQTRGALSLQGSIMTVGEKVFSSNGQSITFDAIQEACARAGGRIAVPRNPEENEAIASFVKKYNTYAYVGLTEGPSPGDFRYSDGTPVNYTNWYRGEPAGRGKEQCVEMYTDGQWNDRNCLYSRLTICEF

B1: human lung tissue nanobody Nb11 (VHH)
VHH: MQAQLAGQLQLVESGGGLVQPGGSLRLSCTASKFHLDSYAVAWFRQTPGKEREAVSFINTSDDVTYFADSVKGRFTISRDNSKNTVYLQMNVLKPEDTSIYVCAAVRSPGPTGPSMQPMWVPDLYDYWGQGTQVTVSSAHHSEDPGPRGLAAAGAPVPYPDPLEPRAA
For B1, the “OD450 relative to negative control” value in assay [1] was 2 times the negative control. Further, the “affinity value relative to negative control” value in assay [2] was 3 times the negative control.

B2: human lung tissue nanobody Nb43 (VHH)
VHH: MQAQLAVQLQLVESGGGLVQSGGSLRLSCAASGFTFNDYRMSWVRQAPGKGLEWVSDINSGGSSTYYADSVKGRFTVSRDNAKNTLYLQMNSLKPEDTAIYYCVALLGRGCSGLVQGAFGPWGQGTQVTVSSAHHSEDPGPRGLAAAGAPVPYPDPLEPRAA
Regarding B2, the “OD450 relative to negative control” value in assay [1] is 2 times the negative control. In addition, the “affinity value relative to negative control” value in assay [2] is 3 times the negative control.

B3: human lung tissue nanobody Nb15 (VHH)
VHH: MQAQLAGQLQLVESGGGLVQPGGSLSVSCAVRGRDLDYYVIGWFRQAPGKEREGVSCINNSDDTTYYSDSVKGRFTISRDHAKNTVYLQMNNLKPEDTALYYCAADFDRLDFTVKAMCVMKFFYYWGQGTQVTVSSEPKTPKPQGPRGLAAAGAPVPYPDLEPRAA
On to B3, for which the “OD450 relative to negative control” value in assay [1] was 2 times the negative control. Besides, the “affinity value relative to negative control” value in assay [2] is 3 times the negative control.

B4: human lung tissue nanobody Nb17 (VHH)
VHH: MQAQLAVQLQLVESGGGLVQPGGSLRLACAASGFNLDDYADIGWFRQAPGKERERVLCITISDGTTYYEDSGKGRFSISTDIAKNTVFLQMDSLKAEDTAVYYCAGDPAPFCLYNTYVPRTWGQGTQVTVSSAHHSEDPGPRGLAAAGAPVPYPDPLEPRAA
notes: also called No. 17
With B4, the “OD450 relative to negative control” value in assay [1] was 2 times the negative control. Besides, in assay [2], the “affinity value relative to negative control” value was 3 times the negative control.
